Test results taken from PMC11227723.

Molecular target: Tropomyosin receptor kinase B (human TrkB), stably expressed in NIH-3T3 cells (human) (UniProt Q16620)
Chain of UniProt Q16620 (Q16620 32-822): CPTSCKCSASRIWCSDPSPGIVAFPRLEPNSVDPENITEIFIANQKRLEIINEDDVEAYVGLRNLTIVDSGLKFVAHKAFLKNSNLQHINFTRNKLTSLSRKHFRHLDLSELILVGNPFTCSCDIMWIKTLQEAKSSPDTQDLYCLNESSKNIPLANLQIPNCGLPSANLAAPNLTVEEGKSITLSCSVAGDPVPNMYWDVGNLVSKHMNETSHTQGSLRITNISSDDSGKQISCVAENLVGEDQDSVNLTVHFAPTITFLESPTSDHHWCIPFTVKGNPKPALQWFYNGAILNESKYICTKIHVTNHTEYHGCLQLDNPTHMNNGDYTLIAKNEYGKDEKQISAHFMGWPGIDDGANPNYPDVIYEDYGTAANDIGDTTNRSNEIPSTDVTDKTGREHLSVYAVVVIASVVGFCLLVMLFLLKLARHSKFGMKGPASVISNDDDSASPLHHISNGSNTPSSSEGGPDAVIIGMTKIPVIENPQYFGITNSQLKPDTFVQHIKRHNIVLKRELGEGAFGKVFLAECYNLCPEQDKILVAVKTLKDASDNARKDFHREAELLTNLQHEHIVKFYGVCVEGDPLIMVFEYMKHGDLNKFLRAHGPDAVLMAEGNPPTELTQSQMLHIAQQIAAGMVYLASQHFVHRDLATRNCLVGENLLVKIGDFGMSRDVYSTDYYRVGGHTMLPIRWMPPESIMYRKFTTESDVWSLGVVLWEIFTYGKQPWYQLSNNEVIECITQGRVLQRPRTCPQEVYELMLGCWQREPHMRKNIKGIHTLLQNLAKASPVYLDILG

With “Brain-derived neurotrophic factor (ligand)” the TrkB phosphorylation (Western blot of phosphorylated and total TrkB) in NIH-3T3-TrkB cells after 20 min with BDNF (500 ng/mL), fold change against the untreated control was 1.87 fold change.
